Starred links: 1 amine or outer side, 2 acyl side, 3 side chain; linkers in the order of their positions; H or OH if unused. Non-standard residues stand in square brackets, D forms with d. *: point of attachment. AC4Abu = α-carboxy-4-aminobutyric acid, O=C(C(CCN[*:1])C(=O)[*:3])[*:2]; Oic = O=C(O)[C@@H]1C[C@@H]2CCCC[C@@H]2N1; Phe(4-Cl) = N[C@@H](Cc1ccc(Cl)cc1)C(=O)O; γGlu = O=C(O)[C@H](CCC(=O)[*:2])N[*:1]; 2Nal = N[C@@H](Cc1ccc2ccccc2c1)C(=O)O; NMehArg = CN[C@@H](CCCCNC(=N)N)C(=O)O; NMeR = CN[C@@H](CCCNC(=N)N)C(=O)O; Tridecanoyl = CCCCCCCCCCCCC(=O)*; Cha = N[C@@H](CC1CCCCC1)C(=O)O; Nle = CCCC[C@H](N)C(=O)O; AEEA = NCCOCCOCC(=O)O; Aib = CC(C)(N)C(=O)O; βAla = NCCC(=O)O

The record followed here is patent US10941182 (Amgen, dated 2021).

One test concerns the target T1, human APJ receptor (human, UniProt P35414 1-380).
T1 sequence (looked up): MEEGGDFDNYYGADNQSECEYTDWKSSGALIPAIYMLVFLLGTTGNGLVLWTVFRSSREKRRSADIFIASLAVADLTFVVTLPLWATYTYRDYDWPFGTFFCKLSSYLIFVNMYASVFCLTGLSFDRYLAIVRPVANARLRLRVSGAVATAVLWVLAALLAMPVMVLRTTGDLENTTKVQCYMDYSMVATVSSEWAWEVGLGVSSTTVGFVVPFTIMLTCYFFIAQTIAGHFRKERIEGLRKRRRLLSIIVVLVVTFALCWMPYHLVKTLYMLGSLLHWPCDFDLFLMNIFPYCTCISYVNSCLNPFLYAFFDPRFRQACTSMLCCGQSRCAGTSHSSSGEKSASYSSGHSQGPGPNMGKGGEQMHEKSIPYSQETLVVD
Put plainly: cell-based or functional assay.

A further test concerns the target T2, rat APJ receptor (rat, UniProt Q9JHG3 1-377).
T2 sequence (looked up): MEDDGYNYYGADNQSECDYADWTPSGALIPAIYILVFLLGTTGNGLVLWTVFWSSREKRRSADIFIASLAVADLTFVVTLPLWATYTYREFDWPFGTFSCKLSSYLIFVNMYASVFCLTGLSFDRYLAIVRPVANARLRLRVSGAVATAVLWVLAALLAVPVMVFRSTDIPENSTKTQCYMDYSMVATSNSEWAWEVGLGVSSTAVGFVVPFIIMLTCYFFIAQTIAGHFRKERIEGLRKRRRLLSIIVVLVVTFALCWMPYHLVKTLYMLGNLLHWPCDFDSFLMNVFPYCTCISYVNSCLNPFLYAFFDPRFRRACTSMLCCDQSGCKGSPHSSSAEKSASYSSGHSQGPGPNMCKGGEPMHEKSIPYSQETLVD
Put plainly: cell-based or functional assay.

For XXXQRPRLSHKGPXPF ({TDA}[AC4Abu][Aeea][Aeea]QRP[NMeArg]LSHKGP[Nle][aMePro][4-Cl-F]{COOH}) [Apelin polypeptide SEQ ID NO: 401], in the test with human APJ receptor, the “EC50 Human APJ Receptor (GTPγS assay)” value is 0.0816 nM. The “EC50 Rat APJ Receptor (GTPγS assay)” value with rat APJ receptor stood at 0.351 nM.
XXXQRPRLSHKGPXXF ({TDA}[AC4Abu][Aeea][Aeea]QRP[NMeArg]LSHKGP[Nle][Pip][4-Cl-F]{COOH}) [Apelin polypeptide SEQ ID NO: 429]: the “EC50 Human APJ Receptor (GTPγS assay)” value with human APJ receptor turned out to be 0.0664 nM. Also, the “EC50 Rat APJ Receptor (GTPγS assay)” value with rat APJ receptor is 0.0935 nM.
Taken in the same sequence, the figures for XXXQRPRLSHKGPXPF ({TDA}[AC4Abu][Aeea][Aeea]QrP[NMehArg][BLeu]SHKGP[Nle]P[4-Cl-F]{COOH}) [Apelin polypeptide SEQ ID NO: 384] were 0.957 nM and 4.35 nM.

B1: Apelin polypeptide SEQ ID NO: 435 (peptide)
peptide: Tridecanoyl-[γGlu][AEEA][AEEA]Q[dR]P[NMehArg][Cha]SHKGP[Nle]P[Phe(4-Cl)]-OH
SMILES: CCCCCCCCCCCCC(=O)N[C@@H](CCC(=O)NCCOCCOCC(=O)NCCOCCOCC(=O)N[C@@H](CCC(N)=O)C(=O)N[C@H](CCCNC(=N)N)C(=O)N1CCC[C@H]1C(=O)N(C)[C@@H](CCCCNC(=N)N)C(=O)N[C@@H](CC1CCCCC1)C(=O)N[C@@H](CO)C(=O)N[C@@H](Cc1c[nH]cn1)C(=O)N[C@@H](CCCCN)C(=O)NCC(=O)N1CCC[C@H]1C(=O)N[C@@H](CCCC)C(=O)N1CCC[C@H]1C(=O)N[C@@H](Cc1ccc(Cl)cc1)C(=O)O)C(=O)O
Turning to B1, the “EC50 Human APJ Receptor (GTPγS assay)” value with human APJ receptor came out at 0.461 nM. For the same molecule, the “EC50 Rat APJ Receptor (GTPγS assay)” value in the test with rat APJ receptor was 1.15 nM.

B2: Apelin polypeptide SEQ ID NO: 470 (peptide)
peptide: Tridecanoyl-[γGlu][AEEA][AEEA]QRP[NMeR]LSHKGP[Nle]P[2Nal]-OH
SMILES: CCCCCCCCCCCCC(=O)N[C@@H](CCC(=O)NCCOCCOCC(=O)NCCOCCOCC(=O)N[C@@H](CCC(N)=O)C(=O)N[C@@H](CCCNC(=N)N)C(=O)N1CCC[C@H]1C(=O)N(C)[C@@H](CCCNC(=N)N)C(=O)N[C@@H](CC(C)C)C(=O)N[C@@H](CO)C(=O)N[C@@H](Cc1c[nH]cn1)C(=O)N[C@@H](CCCCN)C(=O)NCC(=O)N1CCC[C@H]1C(=O)N[C@@H](CCCC)C(=O)N1CCC[C@H]1C(=O)N[C@@H](Cc1ccc2ccccc2c1)C(=O)O)C(=O)O
As for B2, the “EC50 Human APJ Receptor (GTPγS assay)” value in the test with human APJ receptor is 0.0379 nM. In addition, the “EC50 Rat APJ Receptor (GTPγS assay)” value with rat APJ receptor came out at 0.149 nM.

B3: Apelin polypeptide SEQ ID NO: 527 (peptide)
peptide: Tridecanoyl-[γGlu][AEEA][AEEA][dQ]RP[dE][Cha]SHKG[Oic][Nle][Aib][Phe(4-Cl)]-OH
SMILES: CCCCCCCCCCCCC(=O)N[C@@H](CCC(=O)NCCOCCOCC(=O)NCCOCCOCC(=O)N[C@H](CCC(N)=O)C(=O)N[C@@H](CCCNC(=N)N)C(=O)N1CCC[C@H]1C(=O)N[C@H](CCC(=O)O)C(=O)N[C@@H](CC1CCCCC1)C(=O)N[C@@H](CO)C(=O)N[C@@H](Cc1c[nH]cn1)C(=O)N[C@@H](CCCCN)C(=O)NCC(=O)N1[C@H](C(=O)N[C@@H](CCCC)C(=O)NC(C)(C)C(=O)N[C@@H](Cc2ccc(Cl)cc2)C(=O)O)C[C@@H]2CCCC[C@@H]21)C(=O)O
For the molecule B3, the “EC50 Human APJ Receptor (GTPγS assay)” value with human APJ receptor is 108 nM. Further, the “EC50 Rat APJ Receptor (GTPγS assay)” value in the test with rat APJ receptor was found to be 227 nM.

B4: Apelin polypeptide SEQ ID NO: 352 (peptide)
peptide: Tridecanoyl-[γGlu][AEEA][AEEA]QRP[NMeR]LSHKG[Oic][Nle]P[Phe(4-Cl)]-OH
SMILES: CCCCCCCCCCCCC(=O)N[C@@H](CCC(=O)NCCOCCOCC(=O)NCCOCCOCC(=O)N[C@@H](CCC(N)=O)C(=O)N[C@@H](CCCNC(=N)N)C(=O)N1CCC[C@H]1C(=O)N(C)[C@@H](CCCNC(=N)N)C(=O)N[C@@H](CC(C)C)C(=O)N[C@@H](CO)C(=O)N[C@@H](Cc1c[nH]cn1)C(=O)N[C@@H](CCCCN)C(=O)NCC(=O)N1[C@H](C(=O)N[C@@H](CCCC)C(=O)N2CCC[C@H]2C(=O)N[C@@H](Cc2ccc(Cl)cc2)C(=O)O)C[C@@H]2CCCC[C@@H]21)C(=O)O
Regarding B4, the “EC50 Human APJ Receptor (GTPγS assay)” value in the test with human APJ receptor came out at 0.108 nM. Also, the “EC50 Rat APJ Receptor (GTPγS assay)” value with rat APJ receptor is 0.23 nM.

B5: Apelin polypeptide SEQ ID NO: 425 (peptide)
peptide: Tridecanoyl-[γGlu][AEEA][AEEA]QRP[NMeR]LSHKGP[Nle][βAla][Phe(4-Cl)]-OH
SMILES: CCCCCCCCCCCCC(=O)N[C@@H](CCC(=O)NCCOCCOCC(=O)NCCOCCOCC(=O)N[C@@H](CCC(N)=O)C(=O)N[C@@H](CCCNC(=N)N)C(=O)N1CCC[C@H]1C(=O)N(C)[C@@H](CCCNC(=N)N)C(=O)N[C@@H](CC(C)C)C(=O)N[C@@H](CO)C(=O)N[C@@H](Cc1c[nH]cn1)C(=O)N[C@@H](CCCCN)C(=O)NCC(=O)N1CCC[C@H]1C(=O)N[C@@H](CCCC)C(=O)NCCC(=O)N[C@@H](Cc1ccc(Cl)cc1)C(=O)O)C(=O)O
Take B5: in the test with human APJ receptor, the “EC50 Human APJ Receptor (GTPγS assay)” value turned out to be 0.0937 nM. The “EC50 Rat APJ Receptor (GTPγS assay)” value with rat APJ receptor was determined as 0.157 nM.

B6: Apelin polypeptide SEQ ID NO: 403 (peptide)
peptide: Tridecanoyl-[AC4Abu][AEEA][AEEA]QRP[NMeR]LSHKGP[Nle][2Nal]-OH
SMILES: CCCCCCCCCCCCC(=O)NCCC(C(=O)O)C(=O)NCCOCCOCC(=O)NCCOCCOCC(=O)N[C@@H](CCC(N)=O)C(=O)N[C@@H](CCCNC(=N)N)C(=O)N1CCC[C@H]1C(=O)N(C)[C@@H](CCCNC(=N)N)C(=O)N[C@@H](CC(C)C)C(=O)N[C@@H](CO)C(=O)N[C@@H](Cc1c[nH]cn1)C(=O)N[C@@H](CCCCN)C(=O)NCC(=O)N1CCC[C@H]1C(=O)N[C@@H](CCCC)C(=O)N[C@@H](Cc1ccc2ccccc2c1)C(=O)O
B6: the “EC50 Human APJ Receptor (GTPγS assay)” value with human APJ receptor came to 2.63 nM. Also, the “EC50 Rat APJ Receptor (GTPγS assay)” value in the test with rat APJ receptor amounted to 8.1 nM.

B7: Apelin polypeptide SEQ ID NO: 526 (peptide)
peptide: Tridecanoyl-[γGlu][AEEA][AEEA][dQ]RPE[Cha]SHKG[Oic][Nle][Aib][Phe(4-Cl)]-OH
SMILES: CCCCCCCCCCCCC(=O)N[C@@H](CCC(=O)NCCOCCOCC(=O)NCCOCCOCC(=O)N[C@H](CCC(N)=O)C(=O)N[C@@H](CCCNC(=N)N)C(=O)N1CCC[C@H]1C(=O)N[C@@H](CCC(=O)O)C(=O)N[C@@H](CC1CCCCC1)C(=O)N[C@@H](CO)C(=O)N[C@@H](Cc1c[nH]cn1)C(=O)N[C@@H](CCCCN)C(=O)NCC(=O)N1[C@H](C(=O)N[C@@H](CCCC)C(=O)NC(C)(C)C(=O)N[C@@H](Cc2ccc(Cl)cc2)C(=O)O)C[C@@H]2CCCC[C@@H]21)C(=O)O
Take B7: the “EC50 Human APJ Receptor (GTPγS assay)” value with human APJ receptor was 2.02 nM. In addition, the “EC50 Rat APJ Receptor (GTPγS assay)” value with rat APJ receptor stood at 7.2 nM.

B8: Apelin polypeptide SEQ ID NO: 402 (peptide)
peptide: Tridecanoyl-[AC4Abu][AEEA][AEEA]QRP[NMeR]LSHKGP[Nle][Phe(4-Cl)]-OH
SMILES: CCCCCCCCCCCCC(=O)NCCC(C(=O)O)C(=O)NCCOCCOCC(=O)NCCOCCOCC(=O)N[C@@H](CCC(N)=O)C(=O)N[C@@H](CCCNC(=N)N)C(=O)N1CCC[C@H]1C(=O)N(C)[C@@H](CCCNC(=N)N)C(=O)N[C@@H](CC(C)C)C(=O)N[C@@H](CO)C(=O)N[C@@H](Cc1c[nH]cn1)C(=O)N[C@@H](CCCCN)C(=O)NCC(=O)N1CCC[C@H]1C(=O)N[C@@H](CCCC)C(=O)N[C@@H](Cc1ccc(Cl)cc1)C(=O)O
For the molecule B8, in the test with human APJ receptor, the “EC50 Human APJ Receptor (GTPγS assay)” value stood at 0.1 nM. In the test with rat APJ receptor, the “EC50 Rat APJ Receptor (GTPγS assay)” value amounted to 0.246 nM.
